B1: Sialostatin L (other)
chain: MTGVFGGYSERANHQANPEFLNLAHYATSTWSAQQPGKTHFDTVAEVVKVETQVVAGTNYRLTLKVAESTCELTSTYNKDTCLPKADAAHRTCTTVVFENLQGDKSVSPFECEAA
B2: Sialostatin L2 (other)
chain: MELALRGGYRERSNQDDPEYLELAHYATSTWSAQQPGKTHFDTVVEVLKVETQTVAGTNYRLTLKVAESTCELTSTYNKDTCQANANAAQRTCTTVIYRNLQGEKSISSFECAAA
notes: Recombinant protein overexpressed in bacteria; also called second salivary cystatin; novel cystatin

Experiments:
Cathepsin L [1] = biological target: T1, Cathepsin L (Homo sapiens (Human), UniProt P07711 114-333); assay: cell-based or functional assay
T1 sequence (P07711 114-333 limits assumed, form in doubt): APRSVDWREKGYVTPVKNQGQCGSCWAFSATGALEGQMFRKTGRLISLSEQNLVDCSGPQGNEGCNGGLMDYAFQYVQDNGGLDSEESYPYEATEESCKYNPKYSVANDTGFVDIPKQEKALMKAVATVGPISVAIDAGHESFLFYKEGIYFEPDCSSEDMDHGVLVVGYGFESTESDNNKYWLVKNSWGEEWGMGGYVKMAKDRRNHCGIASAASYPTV

Cathepsin X/Z/P = Cathepsin X/Z/P (Homo sapiens (Human), UniProt Q9UBR2 62-303); assay: cell-based or functional assay
Cathepsin X/Z/P, sequence (Q9UBR2 62-303 limits assumed, form in doubt): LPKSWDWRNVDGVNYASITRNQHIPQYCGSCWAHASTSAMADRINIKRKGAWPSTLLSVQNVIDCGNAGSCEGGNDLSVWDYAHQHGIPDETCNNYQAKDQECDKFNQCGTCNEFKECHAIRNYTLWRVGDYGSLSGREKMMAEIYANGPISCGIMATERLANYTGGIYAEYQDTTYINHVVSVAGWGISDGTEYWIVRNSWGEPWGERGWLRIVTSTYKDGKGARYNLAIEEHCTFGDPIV

Cathepsin S = assay: cell-based or functional assay
Cathepsin C = assay: cell-based or functional assay
Cathepsin V = assay: cell-based or functional assay
Cathepsin L [2] = biological target: T1, Cathepsin L; assay: enzyme kinetics for tight binding inhibition: Morrison's equation, Ki* plotted against substrate concentration, y intercept of the linear regression

Binder | IC50 (inhibitor concentration at which 50% inhibition of enzymatic activity is achieved); 20 pM enzyme (Cathepsin L [1]) [pM] | IC50 (inhibitor concentration at which 50% inhibition of enzymatic activity is achieved); 16 nM enzyme (Cathepsin X/Z/P) [nM] | IC50 (inhibitor concentration at which 50% inhibition of enzymatic activity is achieved); 60 pM enzyme (Cathepsin S) [nM] | IC50 (inhibitor concentration at which 50% inhibition of enzymatic activity is achieved); 10 nM enzyme (Cathepsin C) [nM] | IC50 (inhibitor concentration at which 50% inhibition of enzymatic activity is achieved); 1 nM enzyme (Cathepsin V) [nM] | Ki (Cathepsin L [2]) [nM]
B1 | 126 | 937 | 0.7 | 52.2 | 24.1 | –
B2 | 70.9 | – | 378 | 740 | 28.8 | 0.0655
